Legend:
[1] = Osteocalcin adsorption, elution and dissolution test on biomimetic apatite (HPLC); type: physicochemical; settings: 20 μg protein
Protocol: The test with osteocalcin was conducted by incubating biomimetic apatite prepared on Ti6Al4V substrates with phosphate buffered saline (PBS) containing 0.1 mg/mL (bovine serum albumin) BSA. […] Eighty five percent of the original protein (20 μg) is adsorbed by biomimetic apatite crystals within 3 hours of test. An elution test was designed to further test the affinity of biomimetic apatite to osteocalcin in PBS containing 0.1 mg/mL BSA was measured (FIG. 6). Only ˜6% of the originally applied protein (20 μg) was eluted out from the biomimetic apatite crystals after 20 hours of incubation.

[2] = TGF-β1 adsorption, elution and dissolution test on biomimetic apatite (HPLC); type: physicochemical
Protocol: A parallel study was designed for testing the interaction between biomimetic apatite mineral with TGF-β1 by using a sodium acetate buffer containing 0.1 mg/mL BSA. […] Fifty five percent of growth factor (20 μg) was adsorbed by biomimetic apatite crystallites after 4 hours. Ten percent additional protein was adsorbed in the next 20 hour.

Substance	originally applied protein eluted out from the biomimetic apatite crystals ([1]; PBS containing 0.1 mg/mL BSA, after 20 hours of incubation) [%]	original protein adsorbed by biomimetic apatite crystals ([1]; PBS containing 0.1 mg/mL BSA, within 3 hours)	protein recovered after dissolution of the minerals in acid ([1]; minerals fully dissolved in acid) [%]	growth factor adsorbed by biomimetic apatite crystallites ([2]; 20 μg, sodium acetate buffer containing 0.1 mg/mL BSA, after 4 hours)	elution and dissolution profiles ([2]; compared with osteocalcin)	additional protein adsorbed ([2]; sodium acetate buffer containing 0.1 mg/mL BSA, in the next 20 hour)
osteocalcin (YLYQWLGAPVPYPDPLEPRREVCELNPDCDELADHIGFQEAYRRFYGPV; UniProt P02818 52-100, looked up)	~6	Eighty five	~64	–	–	–
transforming growth factor-beta-1 [TGF-β1]	–	–	–	Fifty five	very similar to those of osteocalcin	Ten

Source: patent publication US20060257492A1, “Suspension of calcium phosphate particulates for local delivery of therapeutic agents” (DePuy Products, Inc., priority 2005, published 2006)
